We go through 1 molecule from patent US20050142561A1 (published 2005).

The target in this assay is T1, Saccharomyces cerevisiae Fab1p (Saccharomyces cerevisiae, UniProt P34756 1-2278).
T1 construct: Constructs used in the two-hybrid, coimmunoprecipitation and cross-linking experiments are not described; also called PI3P 5-kinase
Description: yeast two-hybrid; coimmunoprecipitation; cross-linking.

T1 sequence (P34756 whole entry): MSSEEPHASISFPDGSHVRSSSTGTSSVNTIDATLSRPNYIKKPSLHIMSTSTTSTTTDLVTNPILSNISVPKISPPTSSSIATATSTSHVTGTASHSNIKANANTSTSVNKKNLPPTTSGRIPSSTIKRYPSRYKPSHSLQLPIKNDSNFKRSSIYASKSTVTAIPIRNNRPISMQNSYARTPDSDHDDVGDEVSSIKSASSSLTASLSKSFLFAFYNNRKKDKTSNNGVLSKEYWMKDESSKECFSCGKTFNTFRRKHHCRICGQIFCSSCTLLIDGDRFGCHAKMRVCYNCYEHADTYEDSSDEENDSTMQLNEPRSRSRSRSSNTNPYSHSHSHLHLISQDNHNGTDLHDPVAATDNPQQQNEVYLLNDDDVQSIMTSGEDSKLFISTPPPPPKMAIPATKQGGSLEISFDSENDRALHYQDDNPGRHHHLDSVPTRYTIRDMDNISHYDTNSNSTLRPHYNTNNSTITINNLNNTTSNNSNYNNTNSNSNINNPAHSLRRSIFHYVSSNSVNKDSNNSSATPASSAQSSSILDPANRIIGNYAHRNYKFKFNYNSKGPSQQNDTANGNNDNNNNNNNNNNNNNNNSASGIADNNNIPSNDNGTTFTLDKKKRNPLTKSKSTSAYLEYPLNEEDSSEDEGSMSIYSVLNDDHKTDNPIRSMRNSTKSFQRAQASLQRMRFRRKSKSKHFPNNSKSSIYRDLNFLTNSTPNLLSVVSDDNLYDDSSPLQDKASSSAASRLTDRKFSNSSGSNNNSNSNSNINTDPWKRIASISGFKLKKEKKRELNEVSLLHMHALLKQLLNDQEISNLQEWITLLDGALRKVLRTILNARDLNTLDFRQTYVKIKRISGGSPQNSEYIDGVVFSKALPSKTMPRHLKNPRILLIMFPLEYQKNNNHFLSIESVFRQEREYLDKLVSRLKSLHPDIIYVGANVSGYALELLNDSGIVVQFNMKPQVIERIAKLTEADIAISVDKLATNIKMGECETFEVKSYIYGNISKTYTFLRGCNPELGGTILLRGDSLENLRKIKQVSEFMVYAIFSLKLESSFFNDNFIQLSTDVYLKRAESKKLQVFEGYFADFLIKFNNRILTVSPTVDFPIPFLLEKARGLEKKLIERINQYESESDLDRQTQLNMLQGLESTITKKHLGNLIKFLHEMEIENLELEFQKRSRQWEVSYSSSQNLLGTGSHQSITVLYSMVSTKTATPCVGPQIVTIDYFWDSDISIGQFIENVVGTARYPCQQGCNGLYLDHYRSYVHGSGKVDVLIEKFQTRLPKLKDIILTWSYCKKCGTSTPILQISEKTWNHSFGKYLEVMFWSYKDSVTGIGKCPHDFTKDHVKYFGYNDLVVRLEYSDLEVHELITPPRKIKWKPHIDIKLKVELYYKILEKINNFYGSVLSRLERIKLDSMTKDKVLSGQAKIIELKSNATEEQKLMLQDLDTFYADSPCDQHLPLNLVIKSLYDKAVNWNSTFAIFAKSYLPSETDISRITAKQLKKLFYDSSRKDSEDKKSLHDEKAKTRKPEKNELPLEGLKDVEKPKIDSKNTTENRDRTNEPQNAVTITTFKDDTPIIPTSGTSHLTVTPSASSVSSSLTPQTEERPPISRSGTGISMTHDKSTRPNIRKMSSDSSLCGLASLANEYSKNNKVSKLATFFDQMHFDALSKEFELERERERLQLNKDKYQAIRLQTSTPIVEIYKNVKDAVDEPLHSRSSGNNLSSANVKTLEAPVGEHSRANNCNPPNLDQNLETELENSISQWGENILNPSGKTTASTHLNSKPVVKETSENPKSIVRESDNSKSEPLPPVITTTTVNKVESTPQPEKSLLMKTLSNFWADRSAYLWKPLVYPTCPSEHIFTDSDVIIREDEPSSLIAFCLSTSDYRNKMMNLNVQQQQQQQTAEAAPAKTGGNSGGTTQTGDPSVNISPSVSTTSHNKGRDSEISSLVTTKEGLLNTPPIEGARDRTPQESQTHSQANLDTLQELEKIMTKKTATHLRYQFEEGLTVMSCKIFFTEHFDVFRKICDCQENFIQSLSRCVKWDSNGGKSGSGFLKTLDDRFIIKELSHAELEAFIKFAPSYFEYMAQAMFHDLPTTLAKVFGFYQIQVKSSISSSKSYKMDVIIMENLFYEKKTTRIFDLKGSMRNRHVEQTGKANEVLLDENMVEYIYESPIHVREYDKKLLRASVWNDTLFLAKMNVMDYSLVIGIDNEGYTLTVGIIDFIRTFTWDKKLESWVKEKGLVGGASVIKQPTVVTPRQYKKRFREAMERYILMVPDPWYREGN

B1: Saccharomyces cerevisiae Vac14p (other)
chain: MEKSIAKGLSDKLYEKRKAAALELEKLVKQCVLEGDYDRIDKIIDELCRDYAYALHQPMARNAGLMGLAATAIALGINDVGRYLRNILPPVLACFGDQNDQVRFYACESLYNIAKIAKGEILVYFNEIFDVLCKISADTENSVRGAAELLDRLIKDIVAERASNYISIVNNGSHGLLPAIKTDPISGDVYQEEYEQDNQLAFSLPKFIPLLTERIYAINPDTRVFLVDWLKVLLNTPGLELISYLPSFLGGLFTFLGDSHKDVRTVTHTLMDSLLHEVDRISKLQTEIKMKRLERLKMLEDKYNNSSTPTKKADGALIAEKKKTLMTALGGLSKPLSMETDDTKLSNTNETDDERHLTSQEQLLDSEATSQEPLRDGEEYIPGQDINLNFPEVITVLVNNLASSEAEIQLIALHWIQVILSISPNVFIPFLSKILSVLLKLLSDSDPHITEIAQLVNGQLLSLCSSYVGKETDGKIAYGPIVNSLTLQFFDSRIDAKIACLDWLILIYHKAPNQILKHNDSMFLTLLKSLSNRDSVLIEKALSLLQSLCSDSNDNYLRQFLQDLLTLFKRDTKLVKTRANFIMRQISSRLSPERVYKVISSILDNYNDTTFVKMMIQILSTNLITSPEMSSLRNKLRTCEDGMFFNSLFKSWCPNPVSVISLCFVAENYELAYTVLQTYANYELKLNDLVQLDILIQLFESPVFTRMRLQLLEQQKHPFLHKCLFGILMIIPQSKAFETLNRRLNSLNIWTSQSYVMNNYIRQRENSNFCDSNSDISQRSVSQSKLHFQELINHFKAVSEEDEYSSDMIRLDHGANNKSLLLGSFLDGIDEDKQEIVTPISPMNEAINEEMESPNDNSSVILKDSGSLPFNRNVSDKLKK
notes: 880 amino acid polypeptide; In the Western blot it is the endogenous protein of yeast cell extracts; also called Vac14 yeast; YLR386W product
Turning to B1, the binding result was “no binding”.
